Test results: the supplement of paper PMC7125110
± gives the standard error. Variants at the floor of the assay were thinned out.

B1: glmS ribozyme (parent)
chain: AUAAAAGCGCCAGAACUACAGAAAUGUAGUUGACGAGGAGGAGGUUUAUCGAAUUUUCGGCGGAUGCCUCCAAA

How the values were obtained:
Conditions in all cases: with glucosamine-6-phosphate
glucosamine-6-phosphate [1] = variants of: B1; experiment: self-cleavage kobs at 40 uM GlcN6P; higher = faster cleavage; RNA array
How it was run: (§1)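 Ribozyme variants carrying barcodes were transcribed in situ on sequenced MiSeq chips by E. coli RNA polymerase and tracked at 37 °C with a hybridised Cy3 probe. They were exposed to 40 μM to 10 mM glucosamine-6-phosphate in HEPES/KCl/Mg(OAc)2 buffer. kobs came from exponential decay fits of normalised per-tile medians, and kcat and KM from weighted Michaelis–Menten fits.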

glucosamine-6-phosphate [2] = variants of: B1; experiment: self-cleavage kobs at 10000 uM GlcN6P; higher = faster cleavage; RNA array
How it was run: as §1

glucosamine-6-phosphate [3] = variants of: B1; experiment: self-cleavage kobs at 160 uM GlcN6P; higher = faster cleavage; RNA array
How it was run: as §1

glucosamine-6-phosphate [4] = variants of: B1; experiment: self-cleavage kobs at 640 uM GlcN6P; higher = faster cleavage; RNA array
How it was run: as §1

glucosamine-6-phosphate [5] = variants of: B1; experiment: self-cleavage kobs at 2500 uM GlcN6P; higher = faster cleavage; RNA array
How it was run: as §1

Variant | self-cleavage kobs at 40 uM GlcN6P (glucosamine-6-phosphate [1]) [s⁻¹] | self-cleavage kobs at 10000 uM GlcN6P (glucosamine-6-phosphate [2]) [s⁻¹] | self-cleavage kobs at 160 uM GlcN6P (glucosamine-6-phosphate [3]) [s⁻¹] | self-cleavage kobs at 640 uM GlcN6P (glucosamine-6-phosphate [4]) [s⁻¹] | self-cleavage kobs at 2500 uM GlcN6P (glucosamine-6-phosphate [5]) [s⁻¹]
A14C U31C A39U | 2.48e-05 ± 1.1e-05 | 0.00132 ± 0.00031 | – | – | –
C10G A14C | < 1e-05 | < 1e-05 | – | – | –
U47C A48G C50G C70G | 3.16e-05 ± 1.6e-05 | – | – | – | –
G7C C11G G51A | < 1e-05 | < 1e-05 | – | – | –
A15C G41A C70U | 0.000261 ± 6.2e-05 | 0.0111 ± 0.0023 | – | – | –
C8G G60U A64U | < 1e-05 | < 1e-05 | – | – | –
G43C A52U | < 1e-05 | < 1e-05 | < 1e-05 | < 1e-05 | < 1e-05
C34G C50U | < 1e-05 | < 1e-05 | – | < 1e-05 | –
A42G G44A A48G U57C C67A | < 1e-05 | – | – | – | –
G9A G13A A14C C61A | < 1e-05 | < 1e-05 | – | – | –
G7U G29A A48G | < 1e-05 | < 1e-05 | – | – | –
C11U A36G C58U C67G | 4.33e-05 ± 2.1e-05 | – | – | – | –
G38C U56A | < 1e-05 | – | – | – | < 1e-05
C10G U30G G40U | < 1e-05 | – | – | – | –
G32C A52C G63A | < 1e-05 | – | – | – | –
G9U A39U C68U | < 1e-05 | – | – | – | –
A6C C8A A48U A52C | < 1e-05 | < 1e-05 | – | – | –
A33G G59C | < 1e-05 | < 1e-05 | < 1e-05 | < 1e-05 | < 1e-05
U46C A64U | < 1e-05 | 4.69e-05 ± 1.5e-05 | – | – | –
A36G G37C | < 1e-05 | < 1e-05 | < 1e-05 | – | –
G41U C58G | < 1e-05 | < 1e-05 | < 1e-05 | < 1e-05 | < 1e-05
G29U A36G A48C C71G | < 1e-05 | – | – | – | –
G40A C67A | < 1e-05 | – | – | 0.000183 ± 5.8e-05 | 0.000262 ± 0.00011
A6C A52U C67G | < 1e-05 | – | – | – | –

Variant | self-cleavage kobs at 40 uM GlcN6P (glucosamine-6-phosphate [1]) [s⁻¹] | self-cleavage kobs at 10000 uM GlcN6P (glucosamine-6-phosphate [2]) [s⁻¹] | self-cleavage kobs at 160 uM GlcN6P (glucosamine-6-phosphate [3]) [s⁻¹] | self-cleavage kobs at 640 uM GlcN6P (glucosamine-6-phosphate [4]) [s⁻¹] | self-cleavage kobs at 2500 uM GlcN6P (glucosamine-6-phosphate [5]) [s⁻¹]
G9A C34G | < 1e-05 | < 1e-05 | < 1e-05 | – | < 1e-05
A42U U57C | < 1e-05 | – | < 1e-05 | < 1e-05 | –
A36C C58U | < 1e-05 | < 1e-05 | – | < 1e-05 | –
C11A A12G U65A C67G | 0.000126 ± 3e-05 | 5.83e-05 ± 1.5e-05 | 0.000766 ± 0.00026 | 0.000193 ± 6.4e-05 | 0.000105 ± 2.9e-05
G37C U54C C61U C67G | < 1e-05 | < 1e-05 | – | – | –
G9U A36G A42U G44U | < 1e-05 | – | – | < 1e-05 | < 1e-05
C11A G66C | < 1e-05 | – | – | – | < 1e-05
C11U A15C A48U G60A | < 1e-05 | < 1e-05 | – | – | –
G41C | 1.75e-05 ± 1.7e-06 | 0.00255 ± 0.00067 | 4.15e-05 ± 1.9e-06 | 0.000131 ± 3.6e-06 | 0.000529 ± 4.7e-05
C8U C50G C58G C71U | 0.000808 ± 0.00019 | 0.000113 ± 2.1e-05 | – | – | –
C50G G59C C67G | 0.00018 ± 5.4e-05 | 0.000119 ± 2.8e-05 | – | – | –
C8U G35C | < 1e-05 | < 1e-05 | < 1e-05 | – | < 1e-05
G7A A15U C58A | < 1e-05 | < 1e-05 | – | < 1e-05 | < 1e-05
A42C G43U A48G G62C C67A C70G | < 1e-05 | – | – | < 1e-05 | < 1e-05
C16A G51U A64C | < 1e-05 | < 1e-05 | – | – | < 1e-05
A52C G60U U69C | < 1e-05 | – | – | – | –
U54G C70U | 0.00112 ± 0.00013 | – | 0.000836 ± 0.00011 | 0.00544 ± 0.001 | –
G32C G38C | < 1e-05 | – | < 1e-05 | < 1e-05 | –
A14C G29U G38U G44A A64U | < 1e-05 | < 1e-05 | – | – | –
A6G C61A | < 1e-05 | < 1e-05 | – | – | < 1e-05
A14U G35C A42C | < 1e-05 | – | < 1e-05 | – | –
G35C A48U | < 1e-05 | < 1e-05 | – | – | < 1e-05
G7C A64U | < 1e-05 | < 1e-05 | – | – | < 1e-05
G29U G40A U45A | 5.2e-05 ± 1.6e-05 | 0.000439 ± 0.00011 | – | 0.00011 ± 2.8e-05 | 0.000444 ± 8.6e-05

Variant | self-cleavage kobs at 40 uM GlcN6P (glucosamine-6-phosphate [1]) [s⁻¹] | self-cleavage kobs at 10000 uM GlcN6P (glucosamine-6-phosphate [2]) [s⁻¹] | self-cleavage kobs at 160 uM GlcN6P (glucosamine-6-phosphate [3]) [s⁻¹] | self-cleavage kobs at 640 uM GlcN6P (glucosamine-6-phosphate [4]) [s⁻¹] | self-cleavage kobs at 2500 uM GlcN6P (glucosamine-6-phosphate [5]) [s⁻¹]
A14U G37U | < 1e-05 | < 1e-05 | – | < 1e-05 | –
U46C A64G | 0.000191 ± 2.5e-05 | 0.00537 ± 0.0008 | – | – | –
U46C C50G | < 1e-05 | – | – | < 1e-05 | –
U56C G60U | < 1e-05 | < 1e-05 | < 1e-05 | < 1e-05 | < 1e-05
G43C U57A | < 1e-05 | < 1e-05 | – | < 1e-05 | –
A33C G43C C58A U69A | < 1e-05 | < 1e-05 | – | < 1e-05 | –
C8G G32U G38C G51U | < 1e-05 | – | – | – | –
C16G U54G G60A C70A | < 1e-05 | – | – | 0.000647 ± 0.0003 | 3.79e-05 ± 1.7e-05
U31G A53U C58G G60A | < 1e-05 | < 1e-05 | – | – | –
G37C G59C A64G C68A | < 1e-05 | – | < 1e-05 | – | –
A42C C61A G66U | < 1e-05 | – | – | – | < 1e-05
G41U G60C | < 1e-05 | < 1e-05 | < 1e-05 | < 1e-05 | < 1e-05
A12U G41C C58A | < 1e-05 | < 1e-05 | – | – | < 1e-05
C10A G38A A53U C68A | < 1e-05 | – | – | – | –
A12C A24U A52C C67A | < 1e-05 | – | – | – | –
G7A C34G U56C | < 1e-05 | – | – | – | –
G35A C50G C61G | 0.000147 ± 3e-05 | 0.000252 ± 4.7e-05 | – | – | –
C8A A53G | < 1e-05 | < 1e-05 | < 1e-05 | < 1e-05 | < 1e-05
A6C A42U | < 1e-05 | < 1e-05 | < 1e-05 | < 1e-05 | –
A14G G40U C58G G60A | < 1e-05 | – | – | – | < 1e-05
A36C G37C G41C C50A A52C C71U | < 1e-05 | – | – | – | –
C8A G32U | < 1e-05 | < 1e-05 | < 1e-05 | < 1e-05 | –
G43A C50G | < 1e-05 | < 1e-05 | < 1e-05 | < 1e-05 | –
U31G C61G U65C | < 1e-05 | – | – | – | –

Variant | self-cleavage kobs at 40 uM GlcN6P (glucosamine-6-phosphate [1]) [s⁻¹] | self-cleavage kobs at 10000 uM GlcN6P (glucosamine-6-phosphate [2]) [s⁻¹] | self-cleavage kobs at 160 uM GlcN6P (glucosamine-6-phosphate [3]) [s⁻¹] | self-cleavage kobs at 640 uM GlcN6P (glucosamine-6-phosphate [4]) [s⁻¹] | self-cleavage kobs at 2500 uM GlcN6P (glucosamine-6-phosphate [5]) [s⁻¹]
U45G G62A | < 1e-05 | < 1e-05 | – | < 1e-05 | < 1e-05
C16U U30G G32A U57A C61U | < 1e-05 | – | – | – | < 1e-05
G60U C67G | < 1e-05 | < 1e-05 | < 1e-05 | < 1e-05 | < 1e-05
A42G A48U G62U C71U | < 1e-05 | < 1e-05 | – | < 1e-05 | < 1e-05
G7U G32U C67G | < 1e-05 | < 1e-05 | – | – | < 1e-05
G41U U65C | < 1e-05 | 2.23e-05 ± 7.2e-06 | < 1e-05 | – | –
G32C A52C | < 1e-05 | – | < 1e-05 | < 1e-05 | < 1e-05
A12U G40U C61A | < 1e-05 | < 1e-05 | – | – | –
A33C A64C C68U | < 1e-05 | < 1e-05 | < 1e-05 | < 1e-05 | < 1e-05
A6G C50A U65G | < 1e-05 | – | – | – | –
C11G A36C G37U G38U U49A G63C U65A | < 1e-05 | < 1e-05 | – | – | –
G7U A42U | < 1e-05 | < 1e-05 | – | < 1e-05 | < 1e-05
G35C U54A | < 1e-05 | < 1e-05 | – | < 1e-05 | < 1e-05
G9A G62C | < 1e-05 | < 1e-05 | – | < 1e-05 | –
U31A G44C | < 1e-05 | 6.05e-05 ± 1.8e-05 | – | – | –
G7A C8U | < 1e-05 | – | – | – | –
C11G G60C | < 1e-05 | < 1e-05 | < 1e-05 | < 1e-05 | –
A14C G62C G63A C68G | < 1e-05 | – | – | – | –
A39U G44A C71A | < 1e-05 | – | < 1e-05 | – | –
A36U G44A | < 1e-05 | < 1e-05 | < 1e-05 | < 1e-05 | < 1e-05
G60U U69G | < 1e-05 | < 1e-05 | – | < 1e-05 | –
G44C G59C | < 1e-05 | < 1e-05 | – | < 1e-05 | < 1e-05
G41C G44U U47G | < 1e-05 | – | – | – | –
A12U A14G C16G | 0.000643 ± 0.00021 | – | – | – | –
